Source: publication PMC5729044

Target: 1wa3-wt, the wild-type trimeric aldolase from which I3-01 was derived
Assay: SEC

Question: “1wa3-wt, the wild-type trimeric aldolase from which I3-01 was derived (enzyme)” was tested. Which stoichiometry N did it give?
Answer: 3
